Data: article PMC3088358

Key:
[1] = target: Xenopus Crescent-Flag (Xenopus laevis); assay: SPR
[2] = target: recombinant human BMP1 protein (human) (UniProt P13497); assay: enzyme inhibition kinetics

| Kd [1] [nM] | Ki [2] [nM] | Substance |
| --- | --- | --- |
| 11 |  | recombinant human BMP1 protein (from UniProt P13497 23-986) (enzyme) |
|  | 59 | Xenopus Crescent-Flag (natural protein) |
